Results as given in patent US12084521B2, “TLR9 inhibitors to suppress inflammatory response to pathogens” (University Of Maryland, Baltimore, priority 2018, dated 2024).
No end group written: not given here. Cy3 = Cy3 fluorescent dye label

What was measured:
TLR4 TIR-Cer = assay: FLIM/FRET control construct in HeLa cells; assay type: binding; details: peptide 40 μM
Description: (§1) Three million HeLa cells were transfected with 10 μg of MyD88-Cer, TIRAP-Cer, TRAM-Cer, TLR2-Cer, TLR4 TIR-Cer, or TLR9 TIR-Cer expression vectors using a Lipofectamine™ 3000 kit from Invitrogen™ per manufacturer recommendations. Twenty four hours later, the transfected cells were trypsinized and reseeded into a 50-well gasket (Grace Bio-Labs™) mounted on a microscope slide at the density 8000 cells/well. The next day, cells were treated with Cy3-9R34-ΔN or Cy3-9R11 for 1 hour and fixed on the slides with a 4% paraformaldehyde solution.
(§2) Fluorescence lifetime images were acquired using the Alba V FLIM™ system (ISS™ Inc.). The excitation was from the laser diode 443 nm coupled with scanning module (ISS™) through multiband dichroic filter 443/532/635 nm (Semrock™) to Olympus™ IX71S microscope with objective 20×0.45 NA (UPlan™ Olympus™). Emission was observed through bandpass filter […] (Chroma Technology™) and detected by a photomultiplier H7422-40 (Hamamatsu™). Measurements were performed using frequency domain (FD) and time domain (TD) modalities of the FLIM system. FD FLIM data were acquired using ISS™ A320 FastFLIM™ electronics with n harmonics of 20 MHz laser repetition frequency (n=1, 2, 3, 4, 5, 6). FastFLIM™ was calibrated using fluorescein in buffer pH 8.0 as a standard with a single lifetime of 4.0 ns. TD FLIM images were acquired using time-correlated single photon counting TCSPC™ Model SPC-830 (Becker & Hick™).
(§3) Images (256×256 pixels) were acquired with resolution varied in the range ˜0.4-0.7 μm/pixel, using scan speed 1 ms/pixel. To avoid pixel intensity saturation in bright cells and to improve the signal from dim cells, two to five overlapping scans were used for acquisition of FLIM images. Image sizes varied from 100×100 to 180×180 μm to accommodate multiple cells. FLIM data were analyzed with VistaVision™ Suite software (Vista™ v.212 from ISST). Fluorescence lifetime was determined using single- and bi-exponential intensity decay models. Average lifetime images were generated based on pixel-by-pixel analysis using the combined signal of two neighboring pixels in all directions (bin 2=25 pixels). The binning was used to improve the signal for analysis. The average lifetimes were calculated from fitted parameters, decay times τi and amplitudes αi, τa=Σαiτi. The bi-exponential fitting procedure was performed with one lifetime component fixed at 3.1 nsec, which was found common for most images. To calculate the effective FRET efficiency (E), average lifetimes of the donor only images (τD) and donor-acceptor images (τDA) were used, E=1−τDA/τD.
(§4) TLR9, MyD88, and TIRAP were selected as potential primary binding partners for Cy3-9R34-ΔN and Cy3-9R11. Cer-fused TLR2 and TLR4 TIR domains, and Cer not fused to a TIR, were used as controls. […] Therefore, the TIRAP-Cer with Cy3-2R9 was used as a positive binding control. Binding of Cy3-labeled CPDPs to Cerulean- (Cer-) labeled TIR domains was tested as follows. Fluorescence Lifetime IMages (FLIM) were made of HeLa cells expressing Cer not fused with a TIR domain (upper row) or fused with TLR9 TIR or TIRAP TIR (middle and bottom rows) and treated with a Cy3-labeled decoy peptide for 1 hour.

[1] = test system: Cer not fused to a TIR domain; assay: FLIM/FRET control construct in HeLa cells; assay type: binding; details: peptide 40 μM
Description: as §1, §2, §3, §4

TLR2 TIR-Cer = target: T1, TLR2 TIR-Cer (Homo sapiens, UniProt O60603); assay: FLIM/FRET control construct in HeLa cells; assay type: binding; details: peptide 40 μM
T1 construct: Cer-fused TLR2 and TLR4 TIR domains; expressed in transfected cells; host or cells: HeLa
Description: as §1, §2, §3, §4

TRAM-Cer = target: T2, TRAM-Cer (Homo sapiens, UniProt Q86XR7); assay: FLIM/FRET control construct in HeLa cells; assay type: binding; details: peptide 40 μM
T2 construct: expressed in transfected cells; host or cells: HeLa
Description: as §1, §2, §3, §4

TIRAP TIR = target: T3, TIRAP TIR (Homo sapiens, UniProt P58753); assay: FLIM/FRET binding of Cy3-labeled peptides to Cer-fused TIR in HeLa cells
T3 construct: fused with TLR9 TIR or TIRAP TIR; expressed in transfected cells; host or cells: HeLa
Description: as §1, §2, §3
(§5) To identify potential binding partners of inhibitory peptides a FRET approach coupled with Fluorescence Lifetime Imaging Microscopy (FLIM) was used. HeLa cells were transiently transfected with an expression vector that encodes a TIR domain fused with Cerulean fluorescent protein (Cer). Cells were treated with various concentrations of a Cy3-labeled inhibitory peptide 48 hours after transfection. Cy3 is a suitable FRET acceptor for Cer fluorescence. A direct molecular interaction of a Cy3-labeled peptide with Cer-fused TIR domain should quench Cer fluorescence, leading to a decreased fluorescence lifetime.
as §4
(§6) A progressive shift of average fluorescence lifetime towards lower values observed with increasing peptide concentrations indicates the binding between donor and acceptor moieties. […]

MyD88 TIR = target: T4, MyD88 TIR (Homo sapiens, UniProt Q99836); assay: as above
T4 construct: expressed in transfected cells; host or cells: HeLa
Description: as §1, §2, §3, §5, §4, §6

TLR9 TIR = target: T5, TLR9 TIR (Homo sapiens, UniProt Q9NR96); assay: as above
T5 construct: expressed in transfected cells; host or cells: HeLa
T5 sequence (Q9NR96 868-1013 limits assumed): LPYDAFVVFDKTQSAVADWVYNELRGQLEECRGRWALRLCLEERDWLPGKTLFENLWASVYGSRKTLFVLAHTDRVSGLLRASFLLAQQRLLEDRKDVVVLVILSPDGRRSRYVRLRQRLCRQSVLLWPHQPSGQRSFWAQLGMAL
Description: as §1, §2, §3, §5, §4, §6

T4 sequence (Q99836 159-293 limits assumed): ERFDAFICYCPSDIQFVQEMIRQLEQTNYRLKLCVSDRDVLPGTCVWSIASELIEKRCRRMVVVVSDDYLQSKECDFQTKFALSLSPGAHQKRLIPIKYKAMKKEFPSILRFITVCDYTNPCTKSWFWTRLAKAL
T3 sequence (P58753 84-213 limits assumed): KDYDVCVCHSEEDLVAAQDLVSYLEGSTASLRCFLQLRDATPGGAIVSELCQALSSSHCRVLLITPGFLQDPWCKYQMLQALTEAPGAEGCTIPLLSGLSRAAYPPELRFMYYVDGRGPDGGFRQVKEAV
T2 sequence (Q86XR7 whole entry): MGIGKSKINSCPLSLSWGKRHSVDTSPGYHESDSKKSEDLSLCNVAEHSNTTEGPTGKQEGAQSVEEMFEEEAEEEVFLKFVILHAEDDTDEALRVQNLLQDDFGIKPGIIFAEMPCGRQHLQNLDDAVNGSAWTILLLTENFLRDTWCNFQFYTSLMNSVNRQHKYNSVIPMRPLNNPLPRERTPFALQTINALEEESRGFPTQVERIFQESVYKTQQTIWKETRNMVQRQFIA
T1 sequence (O60603 639-782 limits assumed): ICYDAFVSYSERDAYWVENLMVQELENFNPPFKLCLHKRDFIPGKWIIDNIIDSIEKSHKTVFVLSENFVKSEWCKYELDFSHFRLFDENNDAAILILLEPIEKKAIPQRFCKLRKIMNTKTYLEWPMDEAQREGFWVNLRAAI

Cy3-9R34-ΔN: Cy3-labeled 9R34-ΔN peptide, Cy3 label placed at the peptide N-terminus (Cy3-RQIKIWFQNRRMKWKKALRLCLEERD)
fluorescence lifetime of control TLR4 TIR-Cer (TLR4 TIR-Cer): slightly affected | fluorescence lifetime of Cer not fused to a TIR domain (unspecific quenching) [1]: slightly affected | fluorescence lifetime of control TLR2 TIR-Cer (TLR2 TIR-Cer): slightly affected | fluorescence lifetime of control TRAM-Cer (TRAM-Cer): slightly affected | effect on TIRAP-Cer fluorescence at the lowest peptide concentration (TIRAP TIR; 2.5 μM): absence of the effect | quenching of TIRAP-Cer fluorescence (TIRAP TIR; HeLa cells, Cy3-peptide 2.5-40 μM, 1 hour): notably quenched | quenching of MyD88 TIR-Cer (MyD88 TIR; peptide 40 μM, considerably less than on TLR9 and TIRAP TIR-Cer): notable | average fluorescence lifetime of Cer-labeled MyD88 TIR (MyD88 TIR; peptide 2.5 and 10 μM): not affected | FRET efficiency, TLR9 TIR-Cer (TLR9 TIR; HeLa cells, Cy3-peptide 2.5-40 μM, 1 hour, dose-dependent): 9-23% | fluorescence lifetime of TLR9 TIR-Cer construct (TLR9 TIR; minimal peptide concentration 2.5 μM): decreased
